Experimental findings from paper PMC7082059 (PLoS Pathogens, 2020) are described below.

Settings in all cases: both partners purified
The target in test [1] is T1, Biotin-linker-KQPADGNPDPNANPNV-NH2 (Junc) (Plasmodium falciparum, reading uncertain; also: biotin-linker structure not given here, printed as Biotin-linker-KQPADGNPDPNANPNV-NH2 (Junc)).
T1 construct: junctional region of the Plasmodium falciparum circumsporozoite protein (PfCSP), end of the N-terminal domain and first repeats; numbers count on: the peptide (K1-V16); The linker between biotin and peptide is not described; also called junctional peptide; source: synthetic peptide, bought: Innopep Inc
T1 chain: {Biotin-linker}-KQPADGNPDPNANPNV-NH2
Briefly: BLI; biotinylated peptide captured on streptavidin sensors, dipped into serial dilutions of Fab in Kinetics buffer (Dulbecco's PBS, 0.002% Tween20, 0.01% BSA), 25 °C, Octet Red.

The target in test [2] is T2, Biotin-linker-NPNANPNANPNANPNA-NH2 (NPNA)4 (Plasmodium falciparum, reading uncertain; also: biotin-linker structure not given here, printed as Biotin-linker-NPNANPNANPNANPNA-NH2 (NPNA)4).
T2 construct: four NPNA repeats of the central NANP repeat region of the Plasmodium falciparum circumsporozoite protein (PfCSP); The linker between biotin and peptide is not described; also called NANP peptide; called (NPNA)3 in the results on BLI; source: synthetic peptide, bought: Innopep Inc
T2 chain: {Biotin-linker}-NPNANPNANPNANPNA-NH2
Described as above.

Test [3] addresses T3, Biotin-linker-NPNANPNANPNANPNA-NH2 (NPNA)4 (Plasmodium falciparum, reading uncertain; also: biotin-linker structure not given here, printed as Biotin-linker-NPNANPNANPNANPNA-NH2 (NPNA)4).
T3 construct: four NPNA repeats of the central repeat region of Plasmodium falciparum circumsporozoite protein (PfCSP); also called NANP peptide; source: synthetic peptide, ordered from Innopep Inc
T3 chain: {Biotin-linker}-NPNANPNANPNANPNA-NH2
The test is described as follows: BLI; Octet Red; biotinylated peptide (10 ug/mL) captured on streptavidin sensors, dipped into serial dilutions of Fab in Kinetics buffer (Dulbecco's PBS, 0.002% Tween20, 0.01% BSA); 25 C; Fab667-Junc fitted to a biphasic binding model; errors are fitting errors.

For test [4], the target named is T4, Biotin-linker-KQPADGNPDPNANPNV-NH2 (Junc) (Plasmodium falciparum, reading uncertain; also: biotin-linker structure not given here, printed as Biotin-linker-KQPADGNPDPNANPNV-NH2 (Junc)).
T4 construct: junctional region between the N-terminal domain and the central repeats of Plasmodium falciparum circumsporozoite protein (PfCSP); also called junctional peptide; source: synthetic peptide, ordered from Innopep Inc
T4 chain: {Biotin-linker}-KQPADGNPDPNANPNV-NH2
The description is as above.

The target of test [5] is T5, Ac-KQPADGNPDPNANP-NH2 (Junc) (Plasmodium falciparum 3D7).
T5 construct: junctional region of the Plasmodium falciparum circumsporozoite protein (PfCSP); numbers count on: the peptide (K1-P14); also called junctional peptide for crystallography; source: synthetic peptide, bought: Innopep Inc., 98% purity
T5 chain: Ac-KQPADGNPDPNANP-NH2
Briefly: crystal structure; Fab at 11 mg/mL in TBS with a 5:1 molar ratio of peptide to Fab, crystals grown at 293 K.

The target of test [6] is T6, Ac-NPNANPNANPNA-NH2 [(NPNA)3] (Plasmodium falciparum 3D7).
T6 construct: three NPNA repeats of the central NANP repeat region of the Plasmodium falciparum circumsporozoite protein (PfCSP); numbers count on: the peptide (N1-A12); also called (NPNA)3 peptide; source: synthetic peptide, bought: Innopep Inc., 98% purity
T6 chain: Ac-NPNANPNANPNA-NH2
Described as above.

*: point of attachment. Biotin = O=C1N[C@H]2[C@H](CS[C@H]2CCCCC(=O)*)N1; linker = not defined here

B1: Fab317 (Fab, V domains shown)
VH: QMQLVESGGGVVQPGRSLRLSCTASGFTFSTYAMHWVRQSPGQGLQWVAVISYHSTNKYYEDSVRGRFTISRDNSKNTLYLQMNSLRAEDTAVYYCARDGYSSSFFDFWGQGTLVTVSS
VL: DIQMTQSPSTLSASVGDRVAITCRASQSISRWLAWYQQQPGKAPKLLMSGASVLESGVPSRFSGSGSGTEFTLTISSLQPDDFATYYCQHYNSYFVTFGQGTKVEIK
notes: Fab heavy chain; in the cited structure of Fab317, PDB 6AXL; Fab light chain; NANP-only antibody used for comparison; source: purified
For the molecule B1, the binding result in test [1] is reported as “no binding (tested: 8000 nM)”. In test [2], this molecule had a Kd of 25 nM.

B2: Fab317 (Fab, V domains shown)
VH: QMQLVESGGGVVQPGRSLRLSCTASGFTFSTYAMHWVRQSPGQGLQWVAVISYHSTNKYYEDSVRGRFTISRDNSKNTLYLQMNSLRAEDTAVYYCARDGYSSSFFDFWGQGTLVTVSS
VL: DIQMTQSPSTLSASVGDRVAITCRASQSISRWLAWYQQQPGKAPKLLMSGASVLESGVPSRFSGSGSGTEFTLTISSLQPDDFATYYCQHYNSYFVTFGQGTKVEIK
notes: heavy chain of Fab317 in the cited crystal structure PDB 6AXL; light chain of Fab317 in the cited crystal structure PDB 6AXL; also called mAb317 (as IgG)
For B2, in test [3], the koff came to 0.00146 s⁻¹ and the on-rate (kon) was 58400 M⁻¹ s⁻¹. Also, the binding result in test [4] is “no binding (tested: 8000 nM)”.

B3: Fab668 (Fab, V domains shown)
VH: QVQLVQSGAEVKKPGASVKVSCKASGFTFTDYAMHWVRQAPGQRLEWMGWINAGNGYTKYSQKFQDRLTITRDTFASTVYMELSSLRSEDTTVYYCARDGFCPSNTCSGYYGMDVWGQGTTVTVSS
VL: QSALTQPASVSGSPGQSITISCTGTSSDVGSYNYVSWYQQHPGKAPKLMIYDVNTRPSGVSIRFSASKSGNTASLTVSGLQAEDEAVYYCSSYAGSSTWVFGGGTKLTVL
notes: Fab heavy chain; germline VH1-3*01; CDR H3 of 17 residues with a disulfide between Cys98 and Cys100C; lambda light chain; germline Vλ2-23*02; source: purified
Take B3: the Kd came to 206 nM in test [1] and 56 nM in test [2]. Further, in test [5], the binding result is “binds”.

B4: Fab668 (Fab, V domains shown)
VH: QVQLVQSGAEVKKPGASVKVSCKASGFTFTDYAMHWVRQAPGQRLEWMGWINAGNGYTKYSQKFQDRLTITRDTFASTVYMELSSLRSEDTTVYYCARDGFCPSNTCSGYYGMDVWGQGTTVTVSS
VL: QSALTQPASVSGSPGQSITISCTGTSSDVGSYNYVSWYQQHPGKAPKLMIYDVNTRPSGVSIRFSASKSGNTASLTVSGLQAEDEAVYYCSSYAGSSTWVFGGGTKLTVL
notes: Germline genes VH1-3*01 and Vlambda2-23*02; CDR H3 of 17 residues; also called mAb668 (as IgG)
In test [3], B4 displayed a Kd of 55.6 nM, a koff of 0.00179 s⁻¹ and a kon of 32200 M⁻¹ s⁻¹. In test [4], this molecule gave a koff of 0.00424 s⁻¹ and a kon of 20600 M⁻¹ s⁻¹.

B5: Fab667 (Fab, V domains shown)
VH: QVQLVQSGAEVKKPGASVKVSCRASGYTFTNYAMHWVRQAPGQRLEWMGWINAGNGYTKYSQKFQDRVTITRDTSATTAYMELSSLRSEDTAMYYCARDSFYDILSGPVYHYYGMDVWGQGTTVTVSS
VL: QSALTQPDSVSGSPGQSITISCTGTSNDVGIYNHVSWYQQHPGKAPKLMIYDVNKRPSGISNRFSGSKSGDTASLTISGLQAEDEADYYCCSYAGSSAWVFGGGTKLTVL
notes: Fab heavy chain; germline VH1-3*01; CDR H3 of 19 residues; lambda light chain; germline Vλ2-23*02; source: purified
The molecule B5 displayed a Kd in test [2] of 170 nM. Further, in test [6], the binding result was “binds”.

B6: Fab667 (Fab, V domains shown)
VH: QVQLVQSGAEVKKPGASVKVSCRASGYTFTNYAMHWVRQAPGQRLEWMGWINAGNGYTKYSQKFQDRVTITRDTSATTAYMELSSLRSEDTAMYYCARDSFYDILSGPVYHYYGMDVWGQGTTVTVSS
VL: QSALTQPDSVSGSPGQSITISCTGTSNDVGIYNHVSWYQQHPGKAPKLMIYDVNKRPSGISNRFSGSKSGDTASLTISGLQAEDEADYYCCSYAGSSAWVFGGGTKLTVL
notes: Germline genes VH1-3*01 and Vlambda2-23*02; CDR H3 of 19 residues; also called mAb667 (as IgG)
Turning to B6, in test [3], binding was put at a Kd of 176 nM, the koff came to 0.00429 s⁻¹ and the kon is 24400 M⁻¹ s⁻¹.
